According to patent publication US20140377262A1:

Columns and labels:
[1] = biological target: HA protein of B/Florida/4/2006 (vaccine antigen) (influenza B virus B/Florida/4/2006)
[2] = biological target: HA protein of B/Florida/4/2006 (influenza B virus B/Florida/4/2006); test: cell-based or functional assay
[3] = biological target: HA protein of B/Johannesburg/5/1999 (influenza B virus B/Johannesburg/5/1999); test: cell-based or functional assay
[4] = biological target: HA protein of B/Malaysia/2506/2004 (influenza B virus B/Malaysia/2506/2004); test: cell-based or functional assay
[5] = biological target: HA protein of B/Mie/1/1993 (influenza B virus B/Mie/1/1993); test: cell-based or functional assay
[6] = biological target: HA protein of B/Shandong/7/1997 (influenza B virus B/Shandong/7/1997); test: cell-based or functional assay
[7] = biological target: HA protein of B/Shanghai/361/2002 (influenza B virus B/Shanghai/361/2002); test: cell-based or functional assay
[8] = biological target: HA protein of B/Victoria/2/1987 (influenza B virus B/Victoria/2/1987); test: cell-based or functional assay
[9] = biological target: HA protein of B/Yamanashi/166/1998 (influenza B virus B/Yamanashi/166/1998); test: cell-based or functional assay

B1: HuMAb 5A7 (human monoclonal antibody from hybridoma) (antibody, V domains shown)
VH: QVQLVESGGDVVQPGRSLRLSCAASGFTFNNYGMHWVRQAPGKGLEWVAVVWYDGLIKYYADSVKGRFTISRDNSKNTLYLQMNTLRAEDMGVYYCARDLQPPHSPYGMDVWGQGTTVTVSS
VL: QSVLTQPPSASGTPGQRVTISCSGSSSNIGSNDVYWYQNLPGTAPKLLIYNNNQRPSGVPDRFSGSKSGTSASLAISGLRSEDEADYYCAAWDDSLTVSFGTGTKVTVL
Kd [1]: < 5.6 nM | Fusion inhibition [2]: 100 µg/mL | HI [2]: 25 µg/mL | VN50 [2]: 6.25 µg/mL | VN50 [3]: 6.25 µg/mL | VN50 [4]: 6.25 µg/mL | VN50 [5]: 6.25 µg/mL | VN50 [6]: 25 µg/mL | VN50 [7]: 6.25 µg/mL | VN50 [8]: 25 µg/mL | VN50 [9]: 6.25 µg/mL
